Source: publication PMC12543377, “https://orcid.org/0000-0003-0166-1786 Gustavsson Emil Data curation Formal analysis Investigation Methodology Project administration Validation Visualization Writing - original draft Writing - review”

What was measured:
[1] = target: T1, OBP (UL9 origin-binding protein), dimer (Herpes simplex virus 1, UniProt D3YPE9 1-851); test: cryo-EM; ATPgS, Mg2+; one dimer at Box 1; 20 mM HEPES pH 7.8, 150 mM NaCl, 5 mM MgCl2, 2 mM DTT, 5% glycerol; 2 uM OBP, protein:DNA 1:1.2, 37 C 30 min, then vitrified; settings: protein: recombinant; (StrepTrap purification; tag not described); chain copies: 2
[2] = target: T2, OBP (UL9 origin-binding protein), dimer-dimer assembly (Herpes simplex virus 1, UniProt D3YPE9 1-851); test: cryo-EM (2D classes); two dimers, each apparently on two antiparallel OriS helices (Box 1 and Box 2); low frequency; 20 mM HEPES pH 7.8, 150 mM NaCl, 5 mM MgCl2, 2 mM DTT, 5% glycerol; 2 uM OBP, protein:DNA 1:1.2, 37 C 30 min, then vitrified; settings: protein: recombinant; (StrepTrap purification; tag not described); chain copies: 4
[3] = target: T2, OBP (UL9 origin-binding protein), …; test: cryo-EM; two dimers with putatively two mini-OriS* copies; 20 mM HEPES pH 7.8, 150 mM NaCl, 5 mM MgCl2, 2 mM DTT, 5% glycerol; 2 uM OBP, protein:DNA 1:1.2, 37 C 30 min, then vitrified; settings: protein: recombinant; (StrepTrap purification; tag not described); chain copies: 4; hairpin with 3' single-stranded tail
[4] = target: OBP (UL9 origin-binding protein), monomer (Herpes simplex virus 1, UniProt D3YPE9 1-851); test: cryo-EM; monomer; preferred orientation, DNA path needs validation; 20 mM HEPES pH 7.8, 150 mM NaCl, 5 mM MgCl2, 2 mM DTT, 5% glycerol; 2 uM OBP, protein:DNA 1:1.2, 37 C 30 min, then vitrified; settings: protein: recombinant; (StrepTrap purification; tag not described); hairpin with 3' single-stranded tail
[5] = target: the molecule itself; test: cryo-EM structure; OBP + mini-OriS*, dimer-dimer assembly dataset; same reconstitution; lower resolution; dimers to dimer-dimer assembly
[6] = target: T1, OBP (UL9 origin-binding protein), dimer; test: cryo-EM; no nucleotide; 5 mM MgCl2; one dimer at Box 1; 20 mM HEPES pH 7.8, 150 mM NaCl, 5 mM MgCl2, 2 mM DTT, 5% glycerol; 2 uM OBP, protein:DNA 1:1.2, 37 C 30 min, then vitrified; settings: protein: recombinant; (StrepTrap purification; tag not described); chain copies: 2

B1: OriS (dsDNA)
DNA 1: AAAAGAAGTGAGAACGCGAAGCGTTCGCACTTCGTCCCAATATATATATATTATTAGGGCGAAGTGCGAGCACTGGCGCC
DNA 2: GGCGCCAGTGCTCGCACTTCGCCCTAATAATATATATATATTGGGACGAAGTGCGAACGCTTCGCGTTCTCACTTCTTTT
Question: Does B1 bind [1]?
Answer: binds

Question: Does B1 bind [2]?
Answer: binds

Question: What does the source list for AAAAGAAGTGAGAACGCGAAGCGTTCGCACTTCGTTTTTTTTTT (structured_DNA) [mini-OriS*]?
Answer: binding result [3]: binds; binding result [4]: binds

B2: HSV-1 origin-binding protein (OBP), encoded by the UL9 gene (enzyme)
chain: MPFVGGAESGDPLGAGRPIGDDECEQYTSSVSLARMLYGGDLAEWVPRVHPKTTIERQQHGPVTFPNASAPTARCVTVVRAPMGSGKTTALIRWLREAIHSPDTSVLVVSCRRSFTQTLATRFAESGLVDFVTYFSSTNYIMNDRPFHRLIVQVESLHRVGPNLLNNYDVLVLDEVMSTLGQLYSPTMQQLGRVDALMLRLLRICPRIIAMDATANAQLVDFLCGLRGEKNVHVVVGEYAMPGFSARRCLFLPRLGTELLQAALRPPGPPSGPSPDASPEARGATFFGELEARLGGGDNICIFSSTVSFAEIVARFCRQFTDRVLLLHSLTPLGDVTTWGQYRVVIYTTVVTVGLSFDPLHFDGMFAYVKPMNYGPDMVSVYQSLGRVRTLRKGELLIYMDGSGARSEPVFTPMLLNHVVSSCGQWPAQFSQVTNLLCRRFKGRCDASACDTSLGRGSRIYNKFRYKHYFERCTLACLSDSLNILHMLLTLNCIRVRFWGHDDTLTPKDFCLFLRGVHFDALRAQRDLRELRCRDPEASLPAQAAETEEVGLFVEKYLRSDVAPAEIVALMRNLNSLMGRTRFIYLALLEACLRVPMATRSSAIFRRIYDHYATGVIPTINVTGELELVALPPTLNVTPVWELLCLCSTMAARLHWDSAAGGSGRTFGPDDVLDLLTPHYDRYMQLVFELGHCNVTDGLLLSEEAVKRVADALSGCPPRGSVSETDHAVALFKIIWGELFGVQMAKSTQTFPGAGRVKNLTKQTIVGLLDAHHIDHSACRTHRQLYALLMAHKREFAGARFKLRVPAWGRCLRTHSSSANPNADIILEAALSELPTEAWPMMQGAVNFSTL
notes: No viral strain is named; Tag removal is not mentioned; also called monomer A; monomer B; source: ExpiSf9 cells (recombinant baculovirus), purified (StrepTrap HP, eluted with desthiobiotin)
Question: How did the “stoichiometry N” value [5] turn out when B2 was run?
Answer: 4

B3: OriS-6AT (dsDNA)
DNA 1: AAAAGAAGTGAGAACGCGAAGCGTTCGCACTTCGTCCCAATATATTATTAGGGCGAAGTGCGAGCACTGGCGCC
DNA 2: GGCGCCAGTGCTCGCACTTCGCCCTAATAATATATTGGGACGAAGTGCGAACGCTTCGCGTTCTCACTTCTTTT
Question: Does B3 bind [6]?
Answer: binds
